Reference: paper PMC4085576

Molecular target: microtubules (X-rhodamine labeled, biotin-linked to the surface)
Test: TIRF microscopy of GFP-tagged protein on immobilised microtubules

B1: KIF7_(560)-GFP, N-terminal motor domain and first coiled-coil of KIF7 with a C-terminal GFP tag (domain or fragment)
chain: MGLEAQRLPGAEEAPVRVALRVRPLLPKELLHGHQSCLRVEPERGRITLGRDRHFGFHVVLGEDTGQEAVYQACVQPLLEAFFEGFNATVFAYGQTGSGKTYTMGEASVASLHEDEQGIIPRAMAEAFKLIDENDLLDCLVHVSYLELYKEEFRDLLEVGTASRDIQLREDDRGNVVLCGVKEVDVEGLDEVLSLLEMGNAARHTGATHFNRLSSRSHTVFTVTLEQRGRTPSRLPRPAAGHLLVSKFHFVDLAGSERVLKTGSTGERLKESIQINSTLLALGNVISALGDPQRRGSHIPYRDSKITRILKDSLGGNAKTVMIACVSPSSSDFDETLNTLNYASRAQNIRNRATVNWHPEAERVPEEQAAGARGPPRHRSETRIIHRGRRVPCPAVGSAAVAAGLGAECARCRARTSAAYSLLRELQAEPGLPGAAARKVRDWLCAVEGERSTLSSASGPDSGIESAPAEDQAAQGTSGRKGDEGTQQLLTLQSQVARLEEENRDFLAALEDAMEQYKLQSDRLREQQEEMVELRLRLELAQPGWGAPGLLQGLPPGSFV
- fold increase in filament-bound KIF7 with 2 mM AMP-PNP against 1 mM MgATP: 2 fold
